Ends that are not written are not given here.
Molecular target: T1, Base Leucine Zipper (B-LZ)
T1 construct: In FRET it carried an AF555 label; In the cell and EV assays it was conjugated to the surface through Sulfo-SMCC; also called SynZip2
Assay: titration ELISA on coated B-LZ, anti-FLAG-HRP detection
Protocol: Enzyme-linked immunosorbent assay (ELISA). Nunc MaxiSorp 96-well plates were coated with Base-Leucine Zipper (B-LZ) at 2.5 μg/mL and incubated overnight at 4° C. The plate was thoroughly washed with 0.1% TBS-Tween (TBST). The wells were washed with 0.1% PBST and then blocked with BSA blocking buffer for 1 h at room temperature before incubation with complementary leucine zipper (C-LZ) concentrations ranging from 1 μM to […] at room temperature for 2 hours before washing. Washes were followed by the addition of 100 μL of anti-FLAG horseradish peroxidase (HRP)-linked monoclonal antibody (1:10,000 mAb, #A8592, Sigma Aldrich, St. Louis, MO) for 1 h at room temperature with rocking. The wells were washed with 0.1% PBST followed by the addition of TMB-ELISA substrate. After a 10 min incubation, 2 M H₂SO₄ was added to stop the reaction. The absorbance was measured at 450 nm and 570 nm with a SpectraMax M5 plate reader (Molecular Devices, Sunnyvale, CA).
The proteins were then expressed for in vitro testing. Using titration ELISA, the binding affinity of each sequence was tested for its affinity to the base leucine zipper (B-LZ). […] This decision was based on its high binding affinity and high expression levels in E. coli. […]

B1: NIS1 (high-affinity complementary leucine zipper, HiA C-LZ) (designed binder)
chain: NLVAQLENEVASLENENETLKNKNLQKKNLIAYLEQEIANLRKKIEG
modifications: also: purification and detection tags and conjugation cysteine, position not given here
notes: NIS1 is a mutant of C-LZ 10 nM; not shown: purification and detection tags and conjugation cysteine (Ni-NTA purified, anti-FLAG detected, thiol conjugated); letter
fold improvement in B-LZ binding compared with C-LZ 10 nM: 5 fold

Source: patent US20260124245A1 (UNIVERSITY OF NORTH CAROLINA AT CHAPEL HILL, published 2026)
